Values of other authors as cited in article PMC6324986.
pKd: −log10 of the molar value.

Molecular target: Bub1 (Homo sapiens) (UniProt O43683)
Sequence of UniProt O43683 (O43683 whole entry): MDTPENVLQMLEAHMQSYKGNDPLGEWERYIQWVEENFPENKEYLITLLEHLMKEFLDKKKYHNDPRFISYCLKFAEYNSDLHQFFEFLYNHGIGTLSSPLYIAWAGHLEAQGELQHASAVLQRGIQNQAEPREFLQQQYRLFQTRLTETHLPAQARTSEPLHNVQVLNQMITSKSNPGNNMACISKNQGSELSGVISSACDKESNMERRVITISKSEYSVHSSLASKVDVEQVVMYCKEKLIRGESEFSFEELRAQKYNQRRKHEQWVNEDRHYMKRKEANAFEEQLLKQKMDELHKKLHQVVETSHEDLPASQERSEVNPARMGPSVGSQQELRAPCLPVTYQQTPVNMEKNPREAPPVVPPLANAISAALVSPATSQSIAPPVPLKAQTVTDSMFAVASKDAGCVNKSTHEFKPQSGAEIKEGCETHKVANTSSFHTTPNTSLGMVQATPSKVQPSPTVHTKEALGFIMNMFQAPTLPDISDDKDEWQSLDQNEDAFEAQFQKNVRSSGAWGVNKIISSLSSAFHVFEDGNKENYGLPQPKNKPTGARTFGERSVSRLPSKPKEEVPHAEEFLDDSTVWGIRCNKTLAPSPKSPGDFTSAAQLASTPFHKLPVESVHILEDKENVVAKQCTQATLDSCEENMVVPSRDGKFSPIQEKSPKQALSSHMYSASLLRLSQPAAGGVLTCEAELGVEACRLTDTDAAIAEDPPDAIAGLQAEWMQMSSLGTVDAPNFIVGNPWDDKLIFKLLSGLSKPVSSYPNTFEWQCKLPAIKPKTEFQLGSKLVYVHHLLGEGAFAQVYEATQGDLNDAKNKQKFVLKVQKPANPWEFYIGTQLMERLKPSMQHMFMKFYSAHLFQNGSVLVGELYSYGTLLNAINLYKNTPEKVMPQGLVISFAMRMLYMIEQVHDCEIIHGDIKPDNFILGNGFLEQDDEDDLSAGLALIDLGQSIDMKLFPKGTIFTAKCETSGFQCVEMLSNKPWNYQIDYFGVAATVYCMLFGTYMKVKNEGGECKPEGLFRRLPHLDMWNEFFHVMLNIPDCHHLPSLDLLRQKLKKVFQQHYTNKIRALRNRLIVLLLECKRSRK

pKd: < 5.52
Substance: Mad1 (from UniProt Q9Y6D9)
